From PMC13596708
Like-named read-outs stand apart in the source and are kept apart here.

Tests used:
Assay in all cases: AlphaScreen or HTRF
[1] = target: HIS-tagged BRD4 short isoform (BRD4-S), wild type (human) (UniProt O60885)
[2] = target: HIS-tagged BRD4 short isoform (BRD4-S), wild type (human) (UniProt O60885); remark: listed apart in the source
[3] = target: unmodified nucleosome (human | Xenopus laevis) (UniProt P04908)
[4] = target: H4 K12acK16ac nucleosome (human | Xenopus laevis) (UniProt P04908)
[5] = target: H4 K12acK16ac nucleosome (human | Xenopus laevis) (UniProt P04908); remark: listed apart in the source
[6] = target: H4 K12acK16ac nucleosome (human | Xenopus laevis) (UniProt P04908); remark: listed apart in the source
[7] = target: unmodified nucleosome (human | Xenopus laevis) (UniProt P04908); remark: listed apart in the source
[8] = target: H4 K12acK16ac nucleosome (human | Xenopus laevis) (UniProt P04908); remark: listed apart in the source
[9] = target: unmodified nucleosome (human | Xenopus laevis) (UniProt P04908); remark: listed apart in the source
[10] = target: H4 K12acK16ac nucleosome (human | Xenopus laevis) (UniProt P04908); remark: listed apart in the source
[11] = target: unmodified nucleosome (human | Xenopus laevis) (UniProt P04908); remark: listed apart in the source
[12] = target: H4 K12acK16ac nucleosome (human | Xenopus laevis) (UniProt P04908); remark: listed apart in the source
[13] = target: unmodified nucleosome (human | Xenopus laevis) (UniProt P04908); remark: listed apart in the source

Row | Substance | IC50 [1] | IC50 after accounting for the 12 nucleosomes per array [1] | IC50 [2] | Kd [3] | Kd [4] | Kd [5] | Kd [6] | Kd [7] | Kd [8] | Kd [9] | Kd [10] | Kd [11] | Kd [12] | Kd [13]
1 | 12x nucleosome array, H4 K12acK16ac histones (from UniProt P04908 1-130; P06899 1-126; P62799 1-103) (complex) | 0.001 µM | 0.012 µM | 0.0024 µM | – | – | – | – | – | – | – | – | – | – | –
2 | HIS-tagged BRD4 short isoform (BRD4-S), wild type (from UniProt O60885-2 2-722) (natural protein) | – | – | – | 0.043 µM | 0.0122 µM | 0.037 µM | 0.018 µM | 0.071 µM | 0.026 µM | 0.1 µM | 0.042 µM | 0.037 µM | 0.008 µM | 0.0066 µM
3 | 12x nucleosome array, unmodified histones (from UniProt P04908 1-130; P06899 1-126) (complex) | 0.0033 µM | 0.04 µM | 0.0013 µM | – | – | – | – | – | – | – | – | – | – | –
